T1: APBA2_1, Q99767
T1 sequence (Q99767 563-664, limits assumed, looked up): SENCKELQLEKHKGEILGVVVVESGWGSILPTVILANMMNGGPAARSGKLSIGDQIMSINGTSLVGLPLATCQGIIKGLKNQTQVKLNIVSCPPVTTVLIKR

T2: APBA3_1, O96018
T2 sequence (O96018 389-490, limits assumed, looked up): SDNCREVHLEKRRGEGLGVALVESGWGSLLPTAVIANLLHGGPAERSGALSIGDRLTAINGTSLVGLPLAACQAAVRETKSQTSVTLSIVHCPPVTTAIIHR

T3: ARHGEF11, O15085
T3 sequence (O15085 42-136, limits assumed, looked up): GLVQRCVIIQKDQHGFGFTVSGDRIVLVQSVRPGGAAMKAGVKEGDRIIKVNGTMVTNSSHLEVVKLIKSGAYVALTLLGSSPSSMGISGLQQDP

T4: CARD11, Q9BXL7
T4 sequence (Q9BXL7 662-765, limits assumed, looked up): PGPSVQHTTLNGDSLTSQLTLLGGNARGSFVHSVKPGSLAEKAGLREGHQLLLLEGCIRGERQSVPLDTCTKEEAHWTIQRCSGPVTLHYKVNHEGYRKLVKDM

T5: DVL3, Q92997
T5 sequence (Q92997 244-331, limits assumed, looked up): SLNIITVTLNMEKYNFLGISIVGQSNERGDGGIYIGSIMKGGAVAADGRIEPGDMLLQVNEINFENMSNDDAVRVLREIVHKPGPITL

T6: FRMPD1, Q5SYB0
T6 sequence (Q5SYB0 52-145, limits assumed, looked up): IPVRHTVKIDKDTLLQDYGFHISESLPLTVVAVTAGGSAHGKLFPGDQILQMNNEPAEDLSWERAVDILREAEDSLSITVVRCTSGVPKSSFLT

T7: GRIP1_2, Q9Y3R0
T7 sequence (Q9Y3R0 145-248, limits assumed, looked up): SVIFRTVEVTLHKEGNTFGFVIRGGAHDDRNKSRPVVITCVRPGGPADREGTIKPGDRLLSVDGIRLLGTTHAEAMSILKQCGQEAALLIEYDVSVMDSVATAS

T8: MPP6, Q9NZW5
T8 sequence (Q9NZW5 125-219, limits assumed, looked up): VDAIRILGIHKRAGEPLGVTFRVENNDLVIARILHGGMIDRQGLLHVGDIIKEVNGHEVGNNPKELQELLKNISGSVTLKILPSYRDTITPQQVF

T9: NHERF3_1, Q5T2W1
T9 sequence (Q5T2W1 4-100, limits assumed, looked up): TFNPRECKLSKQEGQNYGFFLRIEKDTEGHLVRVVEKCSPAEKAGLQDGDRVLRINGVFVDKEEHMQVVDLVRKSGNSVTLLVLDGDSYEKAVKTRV

T10: PCLO, Q9Y6V0
T10 sequence (Q9Y6V0 4491-4600, limits assumed, looked up): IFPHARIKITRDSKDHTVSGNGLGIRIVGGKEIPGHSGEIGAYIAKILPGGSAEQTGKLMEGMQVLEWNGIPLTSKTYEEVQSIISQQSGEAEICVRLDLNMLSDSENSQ

T11: SNTA1, Q13424
T11 sequence (Q13424 82-180, limits assumed, looked up): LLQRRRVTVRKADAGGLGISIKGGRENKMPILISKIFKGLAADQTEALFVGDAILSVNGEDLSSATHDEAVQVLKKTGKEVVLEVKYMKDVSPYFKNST

T12: TIAM2, Q8IVF5
T12 sequence (Q8IVF5 885-986, limits assumed, looked up): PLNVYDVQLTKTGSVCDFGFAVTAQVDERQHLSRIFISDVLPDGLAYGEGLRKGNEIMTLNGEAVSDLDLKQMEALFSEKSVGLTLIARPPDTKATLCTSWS

T13: TJP3_3, O95049
T13 sequence (O95049 375-456, limits assumed, looked up): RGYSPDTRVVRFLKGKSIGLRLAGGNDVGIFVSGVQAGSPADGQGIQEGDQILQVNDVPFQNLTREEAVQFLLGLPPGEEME


These binders were tested against T1, APBA2_1, Q99767 (assay: holdup assay). Details: plain residues with an end cap or a label only (N-terminal biotin on a linker: ado-ado).
Design: key: below the threshold = too weak to quantify, mostly under pKd 3.1 to 4
With ETSLVKGIDI [DENND5A, Q6IQ26] the pKd was “below the threshold”.

Each binder was assayed against T2, APBA3_1, O96018 (assay: holdup assay). Details: plain residues with an end cap or a label only (N-terminal biotin on a linker: ado-ado).
Design: key: below the threshold = too weak to quantify, mostly under pKd 3.1 to 4
In the case of ETSLVKGIDI [DENND5A, Q6IQ26], the pKd is reported as “below the threshold”.

Each binder was assayed against T3, ARHGEF11, O15085 (assay: holdup assay). Details: plain residues with an end cap or a label only (N-terminal biotin on a linker: ado-ado).
Design: key: below the threshold = too weak to quantify, mostly under pKd 3.1 to 4
ETSLVKGIDI [DENND5A, Q6IQ26] was tested, and the pKd was 3.79.

The binders below were run against ARHGEF12, Q9NZN5-2 (assay: holdup assay). Details: plain residues with an end cap or a label only (N-terminal biotin on a linker: ado-ado).
ARHGEF12, Q9NZN5-2, sequence (Q9NZN5 other isoform, or with tags, fused parts or gaps): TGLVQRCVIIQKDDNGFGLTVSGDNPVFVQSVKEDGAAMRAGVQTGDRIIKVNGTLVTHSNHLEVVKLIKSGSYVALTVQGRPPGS
Design: key: below the threshold = too weak to quantify, mostly under pKd 3.1 to 4
ETSLVKGIDI [DENND5A, Q6IQ26] gave a pKd of 4.17.

What follows are binders tested against T4, CARD11, Q9BXL7 (assay: holdup assay). Details: plain residues with an end cap or a label only (N-terminal biotin on a linker: ado-ado).
Design: key: below the threshold = too weak to quantify, mostly under pKd 3.1 to 4
With ETSLVKGIDI [DENND5A, Q6IQ26] the pKd was “below the threshold”.

Each binder was assayed against CASK, O14936 (assay: holdup assay). Details: plain residues with an end cap or a label only (N-terminal biotin on a linker: ado-ado).
CASK, O14936, sequence (O14936 487-570): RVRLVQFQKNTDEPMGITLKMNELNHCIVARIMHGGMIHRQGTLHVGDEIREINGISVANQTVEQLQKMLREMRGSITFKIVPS
Design: key: below the threshold = too weak to quantify, mostly under pKd 3.1 to 4
ETSLVKGIDI [DENND5A, Q6IQ26] was tested, and the pKd was “below the threshold”.

These binders were tested against DLG5_1, Q8TDM6 (assay: holdup assay). Details: plain residues with an end cap or a label only (N-terminal biotin on a linker: ado-ado).
DLG5_1, Q8TDM6, sequence (Q8TDM6 617-713): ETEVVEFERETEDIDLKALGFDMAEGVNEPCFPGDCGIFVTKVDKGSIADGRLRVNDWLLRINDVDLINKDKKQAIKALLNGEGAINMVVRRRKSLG
Design: key: below the threshold = too weak to quantify, mostly under pKd 3.1 to 4
In the case of ETSLVKGIDI [DENND5A, Q6IQ26], the pKd is reported as “below the threshold”.

What follows are binders tested against T5, DVL3, Q92997 (assay: holdup assay). Details: plain residues with an end cap or a label only (N-terminal biotin on a linker: ado-ado).
Design: key: below the threshold = too weak to quantify, mostly under pKd 3.1 to 4
ETSLVKGIDI [DENND5A, Q6IQ26] was tested, and the pKd was “below the threshold”.

These binders were tested against T6, FRMPD1, Q5SYB0 (assay: holdup assay). Details: plain residues with an end cap or a label only (N-terminal biotin on a linker: ado-ado).
Design: key: below the threshold = too weak to quantify, mostly under pKd 3.1 to 4
For ETSLVKGIDI [DENND5A, Q6IQ26], the pKd was “below the threshold”.

Each binder was assayed against T7, GRIP1_2, Q9Y3R0 (assay: holdup assay). Details: plain residues with an end cap or a label only (N-terminal biotin on a linker: ado-ado).
Design: key: below the threshold = too weak to quantify, mostly under pKd 3.1 to 4
In the case of ETSLVKGIDI [DENND5A, Q6IQ26], the pKd is reported as “below the threshold”.

These binders were tested against GRIP2_3, Q9C0E4 (assay: holdup assay). Details: plain residues with an end cap or a label only (N-terminal biotin on a linker: ado-ado).
GRIP2_3, Q9C0E4, sequence (Q9C0E4 238-339): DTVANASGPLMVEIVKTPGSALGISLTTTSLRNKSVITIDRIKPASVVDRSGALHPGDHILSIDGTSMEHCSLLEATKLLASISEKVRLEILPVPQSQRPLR
Design: key: below the threshold = too weak to quantify, mostly under pKd 3.1 to 4
In the case of ETSLVKGIDI [DENND5A, Q6IQ26], the pKd is reported as “below the threshold”.

Each binder was assayed against GRIP2_6, Q9C0E4 (assay: holdup assay). Details: plain residues with an end cap or a label only (N-terminal biotin on a linker: ado-ado).
GRIP2_6, Q9C0E4, sequence (Q9C0E4 648-740): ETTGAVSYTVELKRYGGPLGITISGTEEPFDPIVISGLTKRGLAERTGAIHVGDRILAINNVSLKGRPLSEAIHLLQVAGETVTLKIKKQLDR
Design: key: below the threshold = too weak to quantify, mostly under pKd 3.1 to 4
For ETSLVKGIDI [DENND5A, Q6IQ26], the pKd was 3.55.

Each binder was assayed against HTRA2, O43464 (assay: holdup assay). Details: plain residues with an end cap or a label only (N-terminal biotin on a linker: ado-ado).
HTRA2, O43464, sequence (O43464 355-458): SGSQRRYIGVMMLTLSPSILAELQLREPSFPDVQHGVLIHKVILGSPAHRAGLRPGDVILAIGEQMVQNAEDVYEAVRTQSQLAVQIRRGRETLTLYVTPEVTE
Design: key: below the threshold = too weak to quantify, mostly under pKd 3.1 to 4
In the case of ETSLVKGIDI [DENND5A, Q6IQ26], the pKd is reported as “below the threshold”.

What follows are binders tested against IL16_1, Q14005 (assay: holdup assay). Details: plain residues with an end cap or a label only (N-terminal biotin on a linker: ado-ado).
IL16_1, Q14005, sequence (Q14005 210-306): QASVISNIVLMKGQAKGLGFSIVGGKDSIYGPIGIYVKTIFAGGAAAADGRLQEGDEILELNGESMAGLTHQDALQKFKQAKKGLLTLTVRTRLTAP
Design: key: below the threshold = too weak to quantify, mostly under pKd 3.1 to 4
With ETSLVKGIDI [DENND5A, Q6IQ26] the pKd was “below the threshold”.

The binders below were run against Inadl_6, Q8NI35 (assay: holdup assay). Details: plain residues with an end cap or a label only (N-terminal biotin on a linker: ado-ado).
Inadl_6, Q8NI35, sequence (Q8NI35 1058-1167): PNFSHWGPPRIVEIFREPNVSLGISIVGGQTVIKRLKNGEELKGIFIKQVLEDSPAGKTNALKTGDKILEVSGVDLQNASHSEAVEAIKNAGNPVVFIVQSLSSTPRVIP
Design: key: below the threshold = too weak to quantify, mostly under pKd 3.1 to 4
In the case of ETSLVKGIDI [DENND5A, Q6IQ26], the pKd is reported as “below the threshold”.

Each binder was assayed against MAGI2_6, Q86UL8 (assay: holdup assay). Details: plain residues with an end cap or a label only (N-terminal biotin on a linker: ado-ado).
MAGI2_6, Q86UL8, sequence (Q86UL8 1141-1229): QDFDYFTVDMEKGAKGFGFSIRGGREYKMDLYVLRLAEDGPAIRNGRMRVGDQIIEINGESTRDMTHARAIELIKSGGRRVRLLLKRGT
Design: key: below the threshold = too weak to quantify, mostly under pKd 3.1 to 4
For ETSLVKGIDI [DENND5A, Q6IQ26], the pKd was “below the threshold”.

The binders below were run against T8, MPP6, Q9NZW5 (assay: holdup assay). Details: plain residues with an end cap or a label only (N-terminal biotin on a linker: ado-ado).
Design: key: below the threshold = too weak to quantify, mostly under pKd 3.1 to 4
With ETSLVKGIDI [DENND5A, Q6IQ26] the pKd was “below the threshold”.

These binders were tested against T9, NHERF3_1, Q5T2W1 (assay: holdup assay). Details: plain residues with an end cap or a label only (N-terminal biotin on a linker: ado-ado).
Design: key: below the threshold = too weak to quantify, mostly under pKd 3.1 to 4
ETSLVKGIDI [DENND5A, Q6IQ26] was tested, and the pKd was “below the threshold”.

Each binder was assayed against NHERF4_2, Q86UT5 (assay: holdup assay). Details: plain residues with an end cap or a label only (N-terminal biotin on a linker: ado-ado).
NHERF4_2, Q86UT5, sequence (Q86UT5 220-308): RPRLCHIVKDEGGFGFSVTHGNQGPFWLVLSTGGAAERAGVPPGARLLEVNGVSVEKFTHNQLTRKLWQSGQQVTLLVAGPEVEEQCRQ
Design: key: below the threshold = too weak to quantify, mostly under pKd 3.1 to 4
For ETSLVKGIDI [DENND5A, Q6IQ26], the pKd was “below the threshold”.

What follows are binders tested against NOS1, P29475 (assay: holdup assay). Details: plain residues with an end cap or a label only (N-terminal biotin on a linker: ado-ado).
NOS1, P29475, sequence (P29475 9-101): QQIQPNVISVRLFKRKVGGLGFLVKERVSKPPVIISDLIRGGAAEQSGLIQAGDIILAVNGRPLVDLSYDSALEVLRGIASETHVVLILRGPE
Design: key: below the threshold = too weak to quantify, mostly under pKd 3.1 to 4
Binder ETSLVKGIDI [DENND5A, Q6IQ26] has a pKd of 3.52.

The binders below were run against T10, PCLO, Q9Y6V0 (assay: holdup assay). Details: plain residues with an end cap or a label only (N-terminal biotin on a linker: ado-ado).
Design: key: below the threshold = too weak to quantify, mostly under pKd 3.1 to 4
ETSLVKGIDI [DENND5A, Q6IQ26] was tested, and the pKd was “below the threshold”.

Each binder was assayed against PICK1, Q9NRD5 (assay: holdup assay). Details: plain residues with an end cap or a label only (N-terminal biotin on a linker: ado-ado).
PICK1, Q9NRD5, sequence (Q9NRD5 17-115): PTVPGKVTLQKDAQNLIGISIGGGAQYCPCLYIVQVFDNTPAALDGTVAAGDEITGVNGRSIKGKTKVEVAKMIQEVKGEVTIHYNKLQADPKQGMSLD
Design: key: below the threshold = too weak to quantify, mostly under pKd 3.1 to 4
With ETSLVKGIDI [DENND5A, Q6IQ26] the pKd was “below the threshold”.

What follows are binders tested against T11, SNTA1, Q13424 (assay: holdup assay). Details: plain residues with an end cap or a label only (N-terminal biotin on a linker: ado-ado).
Design: key: below the threshold = too weak to quantify, mostly under pKd 3.1 to 4
ETSLVKGIDI [DENND5A, Q6IQ26] was tested, and the pKd was “below the threshold”.

These binders were tested against T12, TIAM2, Q8IVF5 (assay: holdup assay). Details: plain residues with an end cap or a label only (N-terminal biotin on a linker: ado-ado).
Design: key: below the threshold = too weak to quantify, mostly under pKd 3.1 to 4
With ETSLVKGIDI [DENND5A, Q6IQ26] the pKd was “below the threshold”.

What follows are binders tested against T13, TJP3_3, O95049 (assay: holdup assay). Details: plain residues with an end cap or a label only (N-terminal biotin on a linker: ado-ado).
Design: key: below the threshold = too weak to quantify, mostly under pKd 3.1 to 4
ETSLVKGIDI [DENND5A, Q6IQ26] was tested, and the pKd was “below the threshold”.
